One assay deals with T1, mouse CD47 (mouse, UniProt Q61735 19-140, limits assumed).
T1 sequence (looked up): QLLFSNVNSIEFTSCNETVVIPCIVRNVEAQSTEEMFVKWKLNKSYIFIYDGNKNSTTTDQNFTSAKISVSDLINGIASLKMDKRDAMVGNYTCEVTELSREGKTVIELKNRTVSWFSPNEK
The assay is described as follows: SPR. Background: In SPR one partner is held on a chip, and binding of the other changes the refractive index at the surface.

The next assay has as its target T2, human CD20 (human, UniProt P11836 1-297, limits assumed).
T2 sequence (looked up): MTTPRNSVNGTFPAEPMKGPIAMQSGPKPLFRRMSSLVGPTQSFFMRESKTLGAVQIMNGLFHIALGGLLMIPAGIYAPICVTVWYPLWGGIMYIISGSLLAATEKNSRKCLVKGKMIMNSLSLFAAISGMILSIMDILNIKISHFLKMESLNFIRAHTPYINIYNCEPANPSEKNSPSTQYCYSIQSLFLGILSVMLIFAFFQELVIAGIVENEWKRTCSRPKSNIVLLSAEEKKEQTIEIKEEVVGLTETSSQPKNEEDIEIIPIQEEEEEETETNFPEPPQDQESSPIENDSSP
Put plainly: sandwich SPR.

The target in assay [1] is T3, human CD47 extracellular domain (human, UniProt Q08722 19-139).
T3 construct: extracellular domain; also called human CD47 ECD; Hu CD47
T3 sequence (Q08722 19-139 limits assumed): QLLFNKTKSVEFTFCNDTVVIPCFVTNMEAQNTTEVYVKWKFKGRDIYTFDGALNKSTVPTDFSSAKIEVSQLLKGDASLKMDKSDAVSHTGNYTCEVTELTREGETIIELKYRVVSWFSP
The assay is described as follows: SPR, human CD47 ECD.

Assay [2] has as its target T4, cynomolgus CD47 extracellular domain (cynomolgus monkey, UniProt A0A2K5X523 19-141).
T4 construct: also called cynomolgus CD47 ECD
The assay is described as follows: SPR, cynomolgus CD47.

Assay [3] deals with T4, cynomolgus CD47 extracellular domain. Put plainly: SPR, cynomolgus CD47 ECD.
Assay [4] concerns the target T5, human CD47 on cells (human, UniProt Q08722 19-323). The assay is described as follows: cell-based or functional assay.
The target of assay [5] is T6, cynomolgus CD20 on B cells (cynomolgus monkey, UniProt M4ZHZ6 1-297).
T6 construct: whole, on cells; also called cynomolgus macaque B cells
T6 sequence: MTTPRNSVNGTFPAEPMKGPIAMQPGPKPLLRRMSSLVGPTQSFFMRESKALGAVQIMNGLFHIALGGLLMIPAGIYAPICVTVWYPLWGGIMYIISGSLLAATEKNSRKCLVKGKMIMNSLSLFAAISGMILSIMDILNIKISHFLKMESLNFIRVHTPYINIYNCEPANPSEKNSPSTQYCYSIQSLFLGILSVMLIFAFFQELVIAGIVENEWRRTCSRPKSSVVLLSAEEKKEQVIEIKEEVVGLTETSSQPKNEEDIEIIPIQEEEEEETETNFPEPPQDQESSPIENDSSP
Put plainly: binding to cynomolgus macaque B cells.

In assay [6] the target is T3, human CD47 extracellular domain. Put plainly: SPR, extracellular domain of human CD47.
For assay [7], the target named is T7, FcγR1 on engineered HEK293 cells (UniProt P12314 16-374).
T7 construct: whole, on cells; also called FcγR1 cell line
T7 sequence (P12314 16-374, change not shown): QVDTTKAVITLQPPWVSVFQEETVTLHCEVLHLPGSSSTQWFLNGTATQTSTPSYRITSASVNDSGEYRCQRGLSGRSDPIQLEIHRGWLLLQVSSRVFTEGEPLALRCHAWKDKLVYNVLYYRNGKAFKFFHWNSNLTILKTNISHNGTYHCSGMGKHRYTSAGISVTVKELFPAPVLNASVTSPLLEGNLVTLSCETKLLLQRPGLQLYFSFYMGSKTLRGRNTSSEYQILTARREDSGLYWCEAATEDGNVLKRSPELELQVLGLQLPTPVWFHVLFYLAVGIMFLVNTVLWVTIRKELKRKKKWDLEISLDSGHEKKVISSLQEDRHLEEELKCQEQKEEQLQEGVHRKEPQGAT
The assay is described as follows: TR-FRET on FcγR-engineered HEK293 cells. A general note: In TR-FRET formats the signal depends on donor and acceptor labels being close together.

The target in assay [8] is T8, FcγR2B on engineered HEK293 cells (UniProt P31994 43-310).
T8 construct: whole, on cells; also called FcγR2B cell line
T8 sequence (looked up): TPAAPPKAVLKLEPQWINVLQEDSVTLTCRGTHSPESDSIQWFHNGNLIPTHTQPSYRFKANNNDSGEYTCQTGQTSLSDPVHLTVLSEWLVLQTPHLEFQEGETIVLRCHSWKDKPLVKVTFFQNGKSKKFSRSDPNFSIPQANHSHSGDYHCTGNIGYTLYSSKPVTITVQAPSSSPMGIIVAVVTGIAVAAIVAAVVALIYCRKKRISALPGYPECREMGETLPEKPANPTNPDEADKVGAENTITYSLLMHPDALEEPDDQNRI
The assay is described as follows: TR-FRET on FcγR-engineered HEK293 cells.

The target in assay [9] is recombinant human fragment crystallizable gamma receptor (FcγR) family members tested. Put plainly: recombinant human FcγR proteins; method not stated.
The target of assay [10] is T9, FcγR2A (H131) recombinant protein (human, UniProt P12318 34-217).
T9 sequence (looked up): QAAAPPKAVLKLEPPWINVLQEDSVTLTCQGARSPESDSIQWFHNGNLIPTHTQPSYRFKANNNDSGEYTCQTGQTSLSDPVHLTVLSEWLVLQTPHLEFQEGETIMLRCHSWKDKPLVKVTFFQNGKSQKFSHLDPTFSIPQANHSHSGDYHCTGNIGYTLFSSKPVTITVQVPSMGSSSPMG
The assay is described as follows: recombinant protein, compared with control anti-RSV IgG1 antibody (p value 0.0038).

Assay [11] deals with FcγR3A (F176) recombinant protein (human, UniProt P08637 17-208). Put plainly: recombinant protein, compared with control anti-RSV IgG1 antibody (p value 0.0045).
Chain of FcγR3A (F176) recombinant protein (P08637 17-208): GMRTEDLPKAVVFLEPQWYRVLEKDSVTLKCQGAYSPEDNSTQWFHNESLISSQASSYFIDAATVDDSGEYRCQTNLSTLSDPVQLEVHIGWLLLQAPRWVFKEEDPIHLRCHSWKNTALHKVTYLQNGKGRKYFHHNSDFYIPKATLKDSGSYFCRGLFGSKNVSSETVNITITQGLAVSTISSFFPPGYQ
Assay [12] concerns the target FcγR3A (V176) recombinant protein (human, UniProt P08637 17-208). The assay is described as follows: recombinant protein, compared with control anti-RSV IgG1 antibody (p value 0.0049).
For assay [13], the target named is T10, FcγR2A (R131) recombinant protein (human, UniProt P12318 34-217).
T10 sequence (looked up): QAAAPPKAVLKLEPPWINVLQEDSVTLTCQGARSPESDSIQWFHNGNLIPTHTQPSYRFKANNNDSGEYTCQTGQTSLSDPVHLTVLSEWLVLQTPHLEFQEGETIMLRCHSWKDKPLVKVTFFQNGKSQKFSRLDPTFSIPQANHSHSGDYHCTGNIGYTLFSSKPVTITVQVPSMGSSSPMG
Put plainly: recombinant protein, compared with control anti-RSV IgG1 antibody (p value 0.00019).

The target of assay [14] is T3, human CD47 extracellular domain. Put plainly: SPR, human CD47 ECD; Example 4 SPR; earlier determination than the 2.32 µM of paragraph 95.
The next assay has as its target T11, human CD20 on cells (human, UniProt P11836 1-297).
T11 construct: whole, on cells; also called CD20 on Raji cells and human B cells
T11 sequence (looked up): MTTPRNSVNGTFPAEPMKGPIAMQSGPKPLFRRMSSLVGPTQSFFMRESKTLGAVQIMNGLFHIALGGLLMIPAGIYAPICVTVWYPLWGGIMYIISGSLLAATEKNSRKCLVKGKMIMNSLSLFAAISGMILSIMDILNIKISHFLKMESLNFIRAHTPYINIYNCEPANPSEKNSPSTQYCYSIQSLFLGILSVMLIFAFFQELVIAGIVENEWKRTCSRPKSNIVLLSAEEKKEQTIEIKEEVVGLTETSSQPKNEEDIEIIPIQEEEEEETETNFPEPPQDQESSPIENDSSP
Put plainly: binding to Raji cells (CD20+/CD47+), y axis MFI (the legend paragraph 44 says SPR).

The target of assay [15] is T5, human CD47 on cells. Put plainly: blocking of human SIRPα binding to Raji cells, SIRPα at saturating concentration, secondary antibody detection; competitor SIRPα (repeated in paragraph 145 as average EC50); Raji cells (CD20+/CD47+); blocking of SIRPα binding.
Assay [16] addresses T5, human CD47 on cells. The assay is described as follows: blocking of human SIRPα binding to OCI-Ly3 cells, SIRPα at saturating concentration, secondary antibody detection; competitor SIRPα (repeated in paragraph 145 as average EC50); OCI-Ly3 cells (CD20+/CD47+); blocking of SIRPα binding.

Here are results for 1 molecule from patent publication US20230365681A1 (CELGENE, published 2023).

T5 sequence (Q08722 19-323): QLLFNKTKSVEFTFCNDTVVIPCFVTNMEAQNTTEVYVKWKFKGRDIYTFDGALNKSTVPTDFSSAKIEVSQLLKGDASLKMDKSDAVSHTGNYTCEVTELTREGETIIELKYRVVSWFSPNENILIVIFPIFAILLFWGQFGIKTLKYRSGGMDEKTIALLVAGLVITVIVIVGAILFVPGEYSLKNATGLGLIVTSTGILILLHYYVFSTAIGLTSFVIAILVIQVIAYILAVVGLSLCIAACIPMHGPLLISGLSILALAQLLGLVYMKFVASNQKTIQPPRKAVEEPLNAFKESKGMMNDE
T4 sequence (A0A2K5X523 entry or part of it limits assumed): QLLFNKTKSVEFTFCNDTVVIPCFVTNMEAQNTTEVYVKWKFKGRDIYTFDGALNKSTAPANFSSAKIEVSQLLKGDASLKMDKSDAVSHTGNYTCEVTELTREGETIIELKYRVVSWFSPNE
Chain of FcγR3A (V176) recombinant protein (P08637 17-208 F176V): as the sequence (P08637 17-208) above, with F160V counted along it

B1: TPP-1360 (bispecific antibody, human IgG1, kappa)
light 1: NIQMTQSPSSLSASVGDRVTITCRASQDIHRYLSWFQQKPGKVPKHLIYRESRFVDGVPSRFSGSGSGTEFTLTISSLQPEDFATYYCLQYDEFPYTFGGGTKVEIKRTVAAPSVFIFPPSDEELKSGTASVVCWLNNFYPREAKVQWKVDNALQSGNSEESVTEQDSKDSTYSLSSTLELSKADYEKHKVYACEVTHQGLSSPVTKSFNRGEC
heavy 1: QMQLVQSGAEVKKPGSSVKVSCKASGFNIKDYYLHWVRQAPGKGLEWMGWIDPDQGDTYYAQKFQGRVTITRDRSTSTAYMELRSLRAEDTAVYYCNAAYGESSYPMDYWGQGTLVTVSSASTKGPSVFPLAPSSKSTSGGTAALGCLVKDYFPEPVTVSWNSGALTSGVHTFPAVLKSSGLYSLSSVVTVPSSSLGTQTYICNVNHKPSNTKVDKKVEPKSCDKTHTCPPCPAPELLGGPSVFLFPPKPKDTLMISRTPEVTCVVVDVSHEDPEVKFNWYVDGVEVHNAKTKPREEQYNSTYRVVSVLTVLHQDWLNGKEYKCKVSNKALPAPIEKTISKAKGQPREPQVYVLPPSREEMTKNQVSLLCLVKGFYPSDIAVEWESNGQPENNYLTWPPVLDSDGSFFLYSKLTVDKSRWQQGNVFSCSVMHEALHNHYTQKSLSLSPGK
light 2: QIVLSQSPAILSASPGEKVTMTCRASSSVSYIHWFQQKPGSSPKPWIYATSNLASGVPVRFSGSGSGTSYSLTISRVEAEDAATYYCQQWTSNPPTFGGGTKLEIKRTVAAPSVAIFPPSDERLKSGTASVVCVLNNFYPREAKVQWKVDNALQSGNSQESVTEQDSKDSTYSLSSRLTLSKADYEKHKVYACEVTHQGLSSPVTKSFNRGEC
heavy 2: QVQLQQPGAELVKPGASVKMSCKASGYTFTSYNMHWVKQTPGRGLEWIGAIYPGNGDTSYNQKFKGKATLTADKSSSTAYMQLSSLTSEDSAVYYCARSTYYGGDWYFNVWGAGTTVTVSAASTKGPSVFPLAPSSKSTSGGTAWLGCEVTDYFPEPVTVSWNSGALTSGVHTFPAVLESSGLYSLSSVVTVPSSSLGTQTYICNVNHKPSNTKVDKKVEPKSCDKTHTCPPCPAPELLGGPSVFLFPPKPKDTLMISRTPEVTCVVVDVSHEDPEVKFNWYVDGVEVHNAKTKPREEQYNSTYRVVSVLTVLHQDWLNGKEYKCKVSNKALPAPIEKTISKAKGQPREPQVYVYPPSREEMTKNQVSLTCLVKGFYPSDIAVEWESNGQPENNYKTTPPVLDSDGSFALVSKLTVDKSRWQQGNVFSCSVMHEALHNHYTQKSLSLSPGK
notes: also called CD47xCD20 bispecific; anti-CD47/anti-CD20 IgG1 1+1 heterodimer bispecific antibody
With B1, the binding result with mouse CD47 is on record as “no binding”; in the assay with human CD20 it was “binds”; in assay [5], “binds”; in assay [7] it was “binds”; in assay [8], “binds”; in [10], “binds”. In addition, the binding result (in [11]; in assay [12]; in assay [13]; in the assay with human CD20 on cells) was “binds” throughout. For the same molecule, the “fold decrease in affinity relative to the parental anti-CD47 binder” value in [1] is about 350 fold. For the same molecule, the Kd (as a rule, the equilibrium constant for the complex coming apart) in assay [2] is 23000 nM; in [3], 4510 nM; in [6], 2320 nM; in assay [9], 0.04 to 1620 nM; in assay [14], 1700 nM. Also, the “EC50 of macrophage phagocytosis of OCI-Ly3 cells, OCI-Ly3 Mφ EC50 (µg/mL) REPEAT” value with human CD47 on cells [4] was 0.27 µg/mL. Also, the figures for the EC50 with human CD47 on cells [15] and in the assay with human CD47 on cells [16] were 1.64 nM and 1.3 nM, respectively.
